According to publication doi:10.1101/2022.06.20.496707:
Like-named read-outs stand apart in the source and are kept apart here.

How the values were obtained:
[1] = molecular target: Serratia NucC (type III-A CRISPR-Cas-associated accessory nuclease of Serratia sp. ATCC 39006) (Serratia sp. ATCC 39006); assay: crystal structure
[2] = molecular target: Serratia NucC (type III-A CRISPR-Cas-associated accessory nuclease of Serratia sp. ATCC 39006) (Serratia sp. ATCC 39006); assay: crystal structure; remark: listed apart in the source

stoichiometry N [1]: 6
stoichiometry N [2]: 6
Substance: Serratia NucC (type III-A CRISPR-Cas-associated accessory nuclease of Serratia sp. ATCC 39006) (enzyme)
